Assay results published in article PMC9032424 (PLoS ONE, 2022).

T1: HisH (glutaminase subunit of Imidazole Glycerol Phosphate Synthase) from Thermotoga maritima (Thermotoga maritima, UniProt Q9X0C8 1-201)
T1 construct: HisH, Thermotoga maritima; cloned NdeI/XhoI into pET28a; No removal of the His-tag is described; source: bacteria transformed with pET28a, purified (70°C heat step, Ni-NTA agarose)
T1 sequence: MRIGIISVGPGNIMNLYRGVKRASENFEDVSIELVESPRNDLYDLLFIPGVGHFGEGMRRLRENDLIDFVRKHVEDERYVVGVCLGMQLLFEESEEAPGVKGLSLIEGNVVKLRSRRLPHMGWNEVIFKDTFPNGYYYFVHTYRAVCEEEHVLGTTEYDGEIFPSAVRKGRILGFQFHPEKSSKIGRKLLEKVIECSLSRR


Each binder was assayed against T1, HisH (glutaminase subunit of Imidazole …) (assay: other fluorescence titration; intrinsic tryptophan fluorescence; 15 uM HisH mixed with sub-stoichiometric HisF (1 to 5 uM); 20 mM potassium phosphate pH 7.5; excitation 295 nm, difference spectra read at 321 nm; fluorescence as proxy of concentrations; 30°C). Conditions: both partners purified.

Binder | fold increase of Kd against wild-type HisF
HisF E167A (enzyme, Thermotoga maritima, HisF, Thermotoga maritima, with the single mutation E167A; parent is the HisF of m1; probably as the His-tagged wild-type HisF; also called mutant HisF) MLAKRIIACLDVKDGRVVKGTNFENLRDSGDPVELGKFYSEIGIDELVFLDITASVEKRKTMLELVEKVAEQIDIPFTVGGGIHDFETASELILRGADKVSINTAAVENPSLITQIAQTFGSQAVVVAIDAKRVDGEFMVFTYSGKKNTGILLRDWVVEVEKRGAGAILLTSIDRDGTKSGYDTEMIRFVRPLTTLPIIASGGAGKMEHFLEAFLAGADAALAASVFHFREIDVRELKEYLKKHGVNVRLEGL | 10 fold
HisF L169A (enzyme, Thermotoga maritima, HisF, Thermotoga maritima, with the single mutation L169A; parent is the HisF of m1; probably as the His-tagged wild-type HisF; also called mutant HisF) MLAKRIIACLDVKDGRVVKGTNFENLRDSGDPVELGKFYSEIGIDELVFLDITASVEKRKTMLELVEKVAEQIDIPFTVGGGIHDFETASELILRGADKVSINTAAVENPSLITQIAQTFGSQAVVVAIDAKRVDGEFMVFTYSGKKNTGILLRDWVVEVEKRGAGEIALTSIDRDGTKSGYDTEMIRFVRPLTTLPIIASGGAGKMEHFLEAFLAGADAALAASVFHFREIDVRELKEYLKKHGVNVRLEGL | ~3 fold
HisF F210A (enzyme, Thermotoga maritima, HisF, Thermotoga maritima, with the single mutation F210A; parent is the HisF of m1; probably as the His-tagged wild-type HisF; also called mutant HisF) MLAKRIIACLDVKDGRVVKGTNFENLRDSGDPVELGKFYSEIGIDELVFLDITASVEKRKTMLELVEKVAEQIDIPFTVGGGIHDFETASELILRGADKVSINTAAVENPSLITQIAQTFGSQAVVVAIDAKRVDGEFMVFTYSGKKNTGILLRDWVVEVEKRGAGEILLTSIDRDGTKSGYDTEMIRFVRPLTTLPIIASGGAGKMEHALEAFLAGADAALAASVFHFREIDVRELKEYLKKHGVNVRLEGL | ~3 fold
HisF K13A (enzyme, Thermotoga maritima, HisF, Thermotoga maritima, with the single mutation K13A; parent is the HisF of m1; probably as the His-tagged wild-type HisF; also called mutant HisF) MLAKRIIACLDVADGRVVKGTNFENLRDSGDPVELGKFYSEIGIDELVFLDITASVEKRKTMLELVEKVAEQIDIPFTVGGGIHDFETASELILRGADKVSINTAAVENPSLITQIAQTFGSQAVVVAIDAKRVDGEFMVFTYSGKKNTGILLRDWVVEVEKRGAGEILLTSIDRDGTKSGYDTEMIRFVRPLTTLPIIASGGAGKMEHFLEAFLAGADAALAASVFHFREIDVRELKEYLKKHGVNVRLEGL | ~3 fold
